Earlier results as cited in article PMC3575409, “Identification of a Novel Protein-Protein Interaction Motif Mediating Interaction of GPCR-Associated Sorting Proteins with G Protein-Coupled Receptors” (PLoS ONE, 2013).

Test system: GST-fused ADRB1 C-tail
Settings: truncated form of GASP-1, amino-acids 898 to 1395; ref [10]; cited from earlier work
Description: This discrepancy is most likely due to the fact that we used full-length GASPs to perform our experiments, while Heydorn and collaborators used a truncated form of GASP-1, corresponding to amino-acids 898 to 1395. When we performed GST-pull down experiments with a similar fragment of GASP-1 (corresponding to amino acids 924 to 1395), only 5% ...

B1: amino-acids 898 to 1395: truncated form of GASP-1 used by Heydorn and collaborators (protein, UniProt Q5JY77 898-1395, looked up, fragment)
chain: ESETEEETIFGSWFWDGKEVSEEAGPCCVSKPEDDEEMIVESWFWSRDKAIKETGTVATCESKPENEEGAIVGSWFEAEDEVDNRTDNGSNCGSRTLADEDEAIVGSWFWAGDEAHFESNPSPVFRAICRSTCSVEQEPDPSRRPQSWEEVTVQFKPGPWGRVGFPSISPFRFPKEAASLFCEMFGGKPRNMVLSPEGEDQESLLQPDQPSPEFPFQYDPSYRSVQEIREHLRAKESTEPESSSCNCIQCELKIGSEEFEELLLLMEKIRDPFIHEISKIAMGMRSASQFTRDFIRDSGVVSLIETLLNYPSSRVRTSFLENMIRMAPPYPNLNIIQTYICKVCEETLAYSVDSPEQLSGIRMIRHLTTTTDYHTLVANYMSGFLSLLATGNAKTRFHVLKMLLNLSENLFMTKELLSAEAVSEFIGLFNREETNDNIQIVLAIFENIGNNIKKETVFSDDDFNIEPLISAFHKVEKFAKELQGKTDNQNDPEGDQEN
interaction of GASP-1 with ADRB1 C-tail: low interaction
